From paper PMC4653032

Assays:
Conditions in all cases: glycan lost; control: wild-type CD133
[1] = immunofluorescence with ER dye, HEK293T
[2] = surface flow cytometry, HEK293T and HepG2
[3] = anti-CD133 western blot, HEK293T lysates

B1: CD133 (prominin-1): N206Q (protein)
parent chain: MALVLGSLLLLGLCGNSFSGGQPSSTDAPKAWNYELPATNYETQDSHKAGPIGILFELVHIFLYVVQPRDFPEDTLRKFLQKAYESKIDYDKPETVILGLKIVYYEAGIILCCVLGLLFIILMPLVGYFFCMCRCCNKCGGEMHQRQKENGPFLRKCFAISLLVICIIISIGIFYGFVANHQVRTRIKRSRKLADSNFKDLRTLLNETPEQIKYILAQYNTTKDKAFTDLNSINSVLGGGILDRLRPNIIPVLDEIKSMATAIKETKEALENMNSTLKSLHQQSTQLSSSLTSVKTSLRSSLNDPLCLVHPSSETCNSIRLSLSQLNSNPELRQLPPVDAELDNVNNVLRTDLDGLVQQGYQSLNDIPDRVQRQTTTVVAGIKRVLNSIGSDIDNVTQRLPIQDILSAFSVYVNNTESYIHRNLPTLEEYDSYWWLGGLVICSLLTLIVIFYYLGLLCGVCGYDRHATPTTRGCVSNTGGVFLMVGVGLSFLFCWILMIIVVLTFVFGANVEKLICEPYTSKELFRVLDTPYLLNEDWEYYLSGKLFNKSKMKLTFEQVYSDCKKNRGTYGTLHLQNSFNISEHLNINEHTGSISSELESLKVNLNIFLLGAAGRKNLQDFAACGIDRMNYDSYLAQTGKSPAGVNLLSFAYDLEAKANSLPPGNLRNSLKRDAQTIKTIHQQRVLPIEQSLSTLYQSVKILQRTGNGLLERVTRILASLDFAQNFITNNTSSVIIEETKKYGRTIIGYFEHYLQWIEFSISEKVASCKPVATALDTAVDVFLCSYIIDPLNLFWFGIGKATVFLLPALIFAVKLAKYYRRMDSEDVYDDVETIPMKNMENGNNGYHKDHVYGIHNPVMTSPSQH
no change: localisation_or_trafficking [1] | localisation_or_trafficking [2] | expression_or_secretion [3]

B2: CD133 (prominin-1): N220Q (protein)
parent chain: MALVLGSLLLLGLCGNSFSGGQPSSTDAPKAWNYELPATNYETQDSHKAGPIGILFELVHIFLYVVQPRDFPEDTLRKFLQKAYESKIDYDKPETVILGLKIVYYEAGIILCCVLGLLFIILMPLVGYFFCMCRCCNKCGGEMHQRQKENGPFLRKCFAISLLVICIIISIGIFYGFVANHQVRTRIKRSRKLADSNFKDLRTLLNETPEQIKYILAQYNTTKDKAFTDLNSINSVLGGGILDRLRPNIIPVLDEIKSMATAIKETKEALENMNSTLKSLHQQSTQLSSSLTSVKTSLRSSLNDPLCLVHPSSETCNSIRLSLSQLNSNPELRQLPPVDAELDNVNNVLRTDLDGLVQQGYQSLNDIPDRVQRQTTTVVAGIKRVLNSIGSDIDNVTQRLPIQDILSAFSVYVNNTESYIHRNLPTLEEYDSYWWLGGLVICSLLTLIVIFYYLGLLCGVCGYDRHATPTTRGCVSNTGGVFLMVGVGLSFLFCWILMIIVVLTFVFGANVEKLICEPYTSKELFRVLDTPYLLNEDWEYYLSGKLFNKSKMKLTFEQVYSDCKKNRGTYGTLHLQNSFNISEHLNINEHTGSISSELESLKVNLNIFLLGAAGRKNLQDFAACGIDRMNYDSYLAQTGKSPAGVNLLSFAYDLEAKANSLPPGNLRNSLKRDAQTIKTIHQQRVLPIEQSLSTLYQSVKILQRTGNGLLERVTRILASLDFAQNFITNNTSSVIIEETKKYGRTIIGYFEHYLQWIEFSISEKVASCKPVATALDTAVDVFLCSYIIDPLNLFWFGIGKATVFLLPALIFAVKLAKYYRRMDSEDVYDDVETIPMKNMENGNNGYHKDHVYGIHNPVMTSPSQH
no change: localisation_or_trafficking [1] | localisation_or_trafficking [2] | expression_or_secretion [3]

B3: CD133 (prominin-1): N274Q (protein)
parent chain: MALVLGSLLLLGLCGNSFSGGQPSSTDAPKAWNYELPATNYETQDSHKAGPIGILFELVHIFLYVVQPRDFPEDTLRKFLQKAYESKIDYDKPETVILGLKIVYYEAGIILCCVLGLLFIILMPLVGYFFCMCRCCNKCGGEMHQRQKENGPFLRKCFAISLLVICIIISIGIFYGFVANHQVRTRIKRSRKLADSNFKDLRTLLNETPEQIKYILAQYNTTKDKAFTDLNSINSVLGGGILDRLRPNIIPVLDEIKSMATAIKETKEALENMNSTLKSLHQQSTQLSSSLTSVKTSLRSSLNDPLCLVHPSSETCNSIRLSLSQLNSNPELRQLPPVDAELDNVNNVLRTDLDGLVQQGYQSLNDIPDRVQRQTTTVVAGIKRVLNSIGSDIDNVTQRLPIQDILSAFSVYVNNTESYIHRNLPTLEEYDSYWWLGGLVICSLLTLIVIFYYLGLLCGVCGYDRHATPTTRGCVSNTGGVFLMVGVGLSFLFCWILMIIVVLTFVFGANVEKLICEPYTSKELFRVLDTPYLLNEDWEYYLSGKLFNKSKMKLTFEQVYSDCKKNRGTYGTLHLQNSFNISEHLNINEHTGSISSELESLKVNLNIFLLGAAGRKNLQDFAACGIDRMNYDSYLAQTGKSPAGVNLLSFAYDLEAKANSLPPGNLRNSLKRDAQTIKTIHQQRVLPIEQSLSTLYQSVKILQRTGNGLLERVTRILASLDFAQNFITNNTSSVIIEETKKYGRTIIGYFEHYLQWIEFSISEKVASCKPVATALDTAVDVFLCSYIIDPLNLFWFGIGKATVFLLPALIFAVKLAKYYRRMDSEDVYDDVETIPMKNMENGNNGYHKDHVYGIHNPVMTSPSQH
no change: localisation_or_trafficking [1] | localisation_or_trafficking [2] | expression_or_secretion [3]

B4: CD133 (prominin-1): N395Q (protein)
parent chain: MALVLGSLLLLGLCGNSFSGGQPSSTDAPKAWNYELPATNYETQDSHKAGPIGILFELVHIFLYVVQPRDFPEDTLRKFLQKAYESKIDYDKPETVILGLKIVYYEAGIILCCVLGLLFIILMPLVGYFFCMCRCCNKCGGEMHQRQKENGPFLRKCFAISLLVICIIISIGIFYGFVANHQVRTRIKRSRKLADSNFKDLRTLLNETPEQIKYILAQYNTTKDKAFTDLNSINSVLGGGILDRLRPNIIPVLDEIKSMATAIKETKEALENMNSTLKSLHQQSTQLSSSLTSVKTSLRSSLNDPLCLVHPSSETCNSIRLSLSQLNSNPELRQLPPVDAELDNVNNVLRTDLDGLVQQGYQSLNDIPDRVQRQTTTVVAGIKRVLNSIGSDIDNVTQRLPIQDILSAFSVYVNNTESYIHRNLPTLEEYDSYWWLGGLVICSLLTLIVIFYYLGLLCGVCGYDRHATPTTRGCVSNTGGVFLMVGVGLSFLFCWILMIIVVLTFVFGANVEKLICEPYTSKELFRVLDTPYLLNEDWEYYLSGKLFNKSKMKLTFEQVYSDCKKNRGTYGTLHLQNSFNISEHLNINEHTGSISSELESLKVNLNIFLLGAAGRKNLQDFAACGIDRMNYDSYLAQTGKSPAGVNLLSFAYDLEAKANSLPPGNLRNSLKRDAQTIKTIHQQRVLPIEQSLSTLYQSVKILQRTGNGLLERVTRILASLDFAQNFITNNTSSVIIEETKKYGRTIIGYFEHYLQWIEFSISEKVASCKPVATALDTAVDVFLCSYIIDPLNLFWFGIGKATVFLLPALIFAVKLAKYYRRMDSEDVYDDVETIPMKNMENGNNGYHKDHVYGIHNPVMTSPSQH
no change: localisation_or_trafficking [1] | localisation_or_trafficking [2] | expression_or_secretion [3]

B5: CD133 (prominin-1): N414Q (protein)
parent chain: MALVLGSLLLLGLCGNSFSGGQPSSTDAPKAWNYELPATNYETQDSHKAGPIGILFELVHIFLYVVQPRDFPEDTLRKFLQKAYESKIDYDKPETVILGLKIVYYEAGIILCCVLGLLFIILMPLVGYFFCMCRCCNKCGGEMHQRQKENGPFLRKCFAISLLVICIIISIGIFYGFVANHQVRTRIKRSRKLADSNFKDLRTLLNETPEQIKYILAQYNTTKDKAFTDLNSINSVLGGGILDRLRPNIIPVLDEIKSMATAIKETKEALENMNSTLKSLHQQSTQLSSSLTSVKTSLRSSLNDPLCLVHPSSETCNSIRLSLSQLNSNPELRQLPPVDAELDNVNNVLRTDLDGLVQQGYQSLNDIPDRVQRQTTTVVAGIKRVLNSIGSDIDNVTQRLPIQDILSAFSVYVNNTESYIHRNLPTLEEYDSYWWLGGLVICSLLTLIVIFYYLGLLCGVCGYDRHATPTTRGCVSNTGGVFLMVGVGLSFLFCWILMIIVVLTFVFGANVEKLICEPYTSKELFRVLDTPYLLNEDWEYYLSGKLFNKSKMKLTFEQVYSDCKKNRGTYGTLHLQNSFNISEHLNINEHTGSISSELESLKVNLNIFLLGAAGRKNLQDFAACGIDRMNYDSYLAQTGKSPAGVNLLSFAYDLEAKANSLPPGNLRNSLKRDAQTIKTIHQQRVLPIEQSLSTLYQSVKILQRTGNGLLERVTRILASLDFAQNFITNNTSSVIIEETKKYGRTIIGYFEHYLQWIEFSISEKVASCKPVATALDTAVDVFLCSYIIDPLNLFWFGIGKATVFLLPALIFAVKLAKYYRRMDSEDVYDDVETIPMKNMENGNNGYHKDHVYGIHNPVMTSPSQH
no change: localisation_or_trafficking [1] | localisation_or_trafficking [2] | expression_or_secretion [3]

B6: CD133 (prominin-1): N580Q (protein)
parent chain: MALVLGSLLLLGLCGNSFSGGQPSSTDAPKAWNYELPATNYETQDSHKAGPIGILFELVHIFLYVVQPRDFPEDTLRKFLQKAYESKIDYDKPETVILGLKIVYYEAGIILCCVLGLLFIILMPLVGYFFCMCRCCNKCGGEMHQRQKENGPFLRKCFAISLLVICIIISIGIFYGFVANHQVRTRIKRSRKLADSNFKDLRTLLNETPEQIKYILAQYNTTKDKAFTDLNSINSVLGGGILDRLRPNIIPVLDEIKSMATAIKETKEALENMNSTLKSLHQQSTQLSSSLTSVKTSLRSSLNDPLCLVHPSSETCNSIRLSLSQLNSNPELRQLPPVDAELDNVNNVLRTDLDGLVQQGYQSLNDIPDRVQRQTTTVVAGIKRVLNSIGSDIDNVTQRLPIQDILSAFSVYVNNTESYIHRNLPTLEEYDSYWWLGGLVICSLLTLIVIFYYLGLLCGVCGYDRHATPTTRGCVSNTGGVFLMVGVGLSFLFCWILMIIVVLTFVFGANVEKLICEPYTSKELFRVLDTPYLLNEDWEYYLSGKLFNKSKMKLTFEQVYSDCKKNRGTYGTLHLQNSFNISEHLNINEHTGSISSELESLKVNLNIFLLGAAGRKNLQDFAACGIDRMNYDSYLAQTGKSPAGVNLLSFAYDLEAKANSLPPGNLRNSLKRDAQTIKTIHQQRVLPIEQSLSTLYQSVKILQRTGNGLLERVTRILASLDFAQNFITNNTSSVIIEETKKYGRTIIGYFEHYLQWIEFSISEKVASCKPVATALDTAVDVFLCSYIIDPLNLFWFGIGKATVFLLPALIFAVKLAKYYRRMDSEDVYDDVETIPMKNMENGNNGYHKDHVYGIHNPVMTSPSQH
no change: localisation_or_trafficking [1] | localisation_or_trafficking [2] | expression_or_secretion [3]
